The values below are quoted from earlier work in patent US20230303640A1, “EXENDIN-4 PEPTIDE ANALOGS” (TXP Pharma AG, priority 2020, published 2023).

This series addresses T1, human GLP-1 receptor (Homo sapiens, UniProt P43220).
T1 construct: expressed in transfected cells; host or cells: CHO-K1
The settings on record: FIG. 3; data included and detailed in PCT/IB2015/000553 (WO/2015/162485).

T1 sequence (P43220 24-463): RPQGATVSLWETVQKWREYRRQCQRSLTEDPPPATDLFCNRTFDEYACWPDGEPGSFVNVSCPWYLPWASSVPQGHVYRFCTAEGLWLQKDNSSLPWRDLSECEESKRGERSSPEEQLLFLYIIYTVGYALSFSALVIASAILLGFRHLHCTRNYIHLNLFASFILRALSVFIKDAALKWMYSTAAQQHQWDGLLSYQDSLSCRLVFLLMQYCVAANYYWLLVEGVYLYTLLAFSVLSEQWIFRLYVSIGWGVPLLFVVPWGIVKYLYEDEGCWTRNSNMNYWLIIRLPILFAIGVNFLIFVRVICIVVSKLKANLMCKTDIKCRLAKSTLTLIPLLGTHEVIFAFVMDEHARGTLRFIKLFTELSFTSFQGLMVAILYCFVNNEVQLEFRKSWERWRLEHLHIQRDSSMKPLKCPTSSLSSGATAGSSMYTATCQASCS

By EC50 is commonly meant the concentration that produces a half-maximal response. On to “Ac-His-Gly-Glu-Gly-Thr-Phe-Thr-Ser-Asp-Val-Ser-Ser-Tyr-Leu-Glu-Gly-Gln-Ala-Ala-Lys-Glu-Phe-Ile-Ala-Trp-Leu-Val-Lys-Gly-Arg-Gly-(Lys-Lys-Ac)Lys-NH2 (HGEGTFTSDVSSYLEGQAAKEFIAWLVKGRG; N-acetyl; C-terminal (Lys-Lys-Ac)Lys amide; printed: His-Gly-Glu-Gly-Thr-Phe-Thr-Ser-Asp-Val-Ser-Ser-Tyr-Leu-Glu-Gly-Gln-Ala-Ala-Lys-Glu-Phe-Ile-Ala-Trp-Leu-Val-Lys-Gly-Arg-Gly-) [Analogue 3, GLP-1 analogue with C-terminal BAP, from WO/2015/162485]”, for which the concentration giving a half-maximal response (EC50) is 0.04 nM.
